This note sets out measurements from paper PMC8600089, “The development of a high-affinity conformation-sensitive antibody mimetic using a biocompatible copolymer carrier (iBody)” (The Journal of Biological Chemistry, 2021).

The target in this assay is T1, recombinant extracellular part of PSMA (construct not named; ELISA and SPR) (human, UniProt Q04609 44-750).
T1 construct: prostate-specific membrane antigen (PSMA), recombinant extracellular part; also called recombinant extracellular domain of PSMA; truncated version of the target enzyme
T1 sequence (Q04609 44-750): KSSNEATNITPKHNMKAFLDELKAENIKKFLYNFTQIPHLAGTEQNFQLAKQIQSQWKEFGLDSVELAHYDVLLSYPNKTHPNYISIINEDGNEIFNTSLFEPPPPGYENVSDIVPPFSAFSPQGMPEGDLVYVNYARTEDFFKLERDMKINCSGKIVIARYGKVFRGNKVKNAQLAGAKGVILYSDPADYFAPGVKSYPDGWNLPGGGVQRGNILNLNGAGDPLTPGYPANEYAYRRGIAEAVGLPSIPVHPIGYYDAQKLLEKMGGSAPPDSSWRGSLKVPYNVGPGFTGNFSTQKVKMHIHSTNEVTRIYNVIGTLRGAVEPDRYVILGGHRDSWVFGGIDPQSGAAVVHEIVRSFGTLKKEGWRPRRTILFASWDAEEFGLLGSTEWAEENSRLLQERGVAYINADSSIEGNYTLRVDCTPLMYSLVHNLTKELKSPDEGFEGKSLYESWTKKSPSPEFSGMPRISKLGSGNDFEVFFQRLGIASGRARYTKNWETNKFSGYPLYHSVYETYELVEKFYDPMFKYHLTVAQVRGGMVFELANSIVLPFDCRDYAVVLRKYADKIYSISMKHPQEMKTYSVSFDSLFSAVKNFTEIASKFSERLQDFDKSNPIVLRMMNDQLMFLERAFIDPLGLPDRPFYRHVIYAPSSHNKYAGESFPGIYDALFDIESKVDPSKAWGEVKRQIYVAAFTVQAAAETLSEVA
Particulars: both partners purified.

Starred links: 1 amine or outer side, 2 acyl side, 3 side chain; linkers in the order of their positions; H or OH if unused. Positions of bridges follow the written chain, without caps; N, C: chain ends. Groups on a side chain read outwards from the residue. *: point of attachment. PEG12 = NCCOCCOCCOCCOCCOCCOCCOCCOCCOCCOCCOCCOCCC(=O)O; Biotin = O=C1N[C@H]2[C@H](CS[C@H]2CCCCC(=O)*)N1; TBMB = c1c(C[*:1])cc(C[*:3])cc1C[*:2]

B1: iBody 1, poly(HPMA-co-Ma-β-Ala-compound 2-co-Ma-β-Ala-ATTO488-co-Ma-β-Ala-NH-ED-biotin) (designed binder)
peptide: CDDECPDYVCGGSGK
modifications: not fully specified; N-terminus acetylated; C-terminal amide; three cysteines cyclized with TBMB; lysine side chain carries (CO)CH2CH2(OCH2CH2)5-NH2 (compound 2), through which the peptide is joined to the HPMA copolymer backbone; the polymer also carries ATTO488 (3.0× per polymer) and biotin (11.6× per polymer)
notes: bicyclic Peptide 1 as compound 2, 9.8 copies per polymer (20.4 wt%); Not a polypeptide as a whole: about 9.8 copies of the peptide on a synthetic HPMA copolymer (Mn = 88,100 g/mol, Mw = 104,000 g/mol); also called the iBody; copies: 9.8
For orientation: EC50 means the midpoint of the concentration-response curve. For the molecule B1, the EC50 turned out to be 2 nM.

B2: Peptide 1 (compound 1), TBMB-cyclized Ac-CDDECPDYVCGGSGK[PEG12-biotin]-NH2 (peptide)
peptide: Ac-CDDECPDYVCGGSGK([PEG12-Biotin])-NH2
modifications: linker 1-5-10 via TBMB
SMILES: CC(=O)N[C@H]1CSCc2cc3cc(c2)CSC[C@H](NC(=O)[C@H](CCC(=O)O)NC(=O)[C@H](CC(=O)O)NC(=O)[C@H](CC(=O)O)NC1=O)C(=O)N1CCC[C@H]1C(=O)N[C@@H](CC(=O)O)C(=O)N[C@@H](Cc1ccc(O)cc1)C(=O)N[C@@H](C(C)C)C(=O)N[C@H](C(=O)NCC(=O)NCC(=O)N[C@@H](CO)C(=O)NCC(=O)N[C@@H](CCCCNC(=O)CCOCCOCCOCCOCCOCCOCCOCCOCCOCCOCCOCCOCCNC(=O)CCCC[C@@H]1SC[C@@H]2NC(=O)N[C@@H]21)C(N)=O)CSC3
notes: bicyclic peptide selected by phage display against PSMA, with the GGSG spacer and an added lysine; also called the peptide; bicyclic peptide; source: synthetic peptide (SPPS, TBMB cyclization, RP HPLC); not shown: biotin (through a PEG12 linker on the C-terminal lysine), C-terminal, kept
Regarding B2, the EC50 is over 5000 nM.
